Literature values in publication PMC8859281.
pKi: −log10 of the molar value.

How the values were obtained:
[1] = target: prokineticin receptor 2 (Homo sapiens) (UniProt Q8NFJ6)
[2] = target: prokineticin receptor 1 (Homo sapiens) (UniProt Q8TCW9)
κ-opioid receptor = κ-opioid receptor (UniProt P41145)
Sequence of κ-opioid receptor (P41145 whole entry): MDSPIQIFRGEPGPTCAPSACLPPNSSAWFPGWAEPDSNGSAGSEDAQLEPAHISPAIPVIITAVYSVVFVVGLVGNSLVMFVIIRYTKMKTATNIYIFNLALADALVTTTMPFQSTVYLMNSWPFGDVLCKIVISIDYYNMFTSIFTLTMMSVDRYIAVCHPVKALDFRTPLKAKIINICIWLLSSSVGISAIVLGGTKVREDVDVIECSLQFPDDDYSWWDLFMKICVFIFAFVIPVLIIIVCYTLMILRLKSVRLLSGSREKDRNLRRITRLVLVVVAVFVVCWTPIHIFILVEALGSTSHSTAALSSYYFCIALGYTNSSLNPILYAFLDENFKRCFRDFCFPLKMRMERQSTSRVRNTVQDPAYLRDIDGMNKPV

Sequence of MIT1 (P25687 whole entry): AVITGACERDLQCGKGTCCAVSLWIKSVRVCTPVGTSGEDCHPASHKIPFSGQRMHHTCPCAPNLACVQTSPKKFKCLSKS
Sequence of prokineticin receptor 2 (Homo sapiens) (Q8NFJ6 whole entry): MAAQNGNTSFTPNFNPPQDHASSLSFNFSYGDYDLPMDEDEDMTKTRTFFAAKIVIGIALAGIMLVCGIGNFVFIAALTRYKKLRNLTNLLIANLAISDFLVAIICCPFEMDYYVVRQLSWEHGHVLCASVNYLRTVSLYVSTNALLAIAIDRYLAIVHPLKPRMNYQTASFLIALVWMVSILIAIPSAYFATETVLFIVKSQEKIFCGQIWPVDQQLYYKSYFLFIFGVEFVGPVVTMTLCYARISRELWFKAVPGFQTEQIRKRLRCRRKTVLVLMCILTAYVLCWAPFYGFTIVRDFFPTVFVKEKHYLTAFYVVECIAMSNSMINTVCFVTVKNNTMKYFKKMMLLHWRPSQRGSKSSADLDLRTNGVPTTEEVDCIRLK
Sequence of prokineticin receptor 1 (Homo sapiens) (Q8TCW9 whole entry): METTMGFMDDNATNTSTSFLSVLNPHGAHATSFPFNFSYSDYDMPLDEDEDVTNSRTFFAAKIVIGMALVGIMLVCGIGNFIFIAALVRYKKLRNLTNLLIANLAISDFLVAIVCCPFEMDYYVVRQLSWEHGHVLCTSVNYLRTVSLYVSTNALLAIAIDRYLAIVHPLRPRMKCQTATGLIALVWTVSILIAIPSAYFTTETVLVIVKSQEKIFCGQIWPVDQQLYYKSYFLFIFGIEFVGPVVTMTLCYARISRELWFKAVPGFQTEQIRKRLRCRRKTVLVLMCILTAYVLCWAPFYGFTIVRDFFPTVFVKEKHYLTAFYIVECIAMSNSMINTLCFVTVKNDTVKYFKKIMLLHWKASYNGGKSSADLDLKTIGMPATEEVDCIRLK

| Substance | pKi [1] | pKi [2] | pKi (κ-opioid receptor) |
| --- | --- | --- | --- |
| MIT1 (from UniProt P25687) | 9.17 | 8.39 | – |
| dynorphin A 1-17 (from UniProt P01213) | – | – | 9.55 |
